Test results: patent US9273342B2, “Methods and systems for evaluating and predicting the reactivity of monooxygenase enzymes” (University of Rochester, priority 2011, dated 2016)
Positions count from the first letter of the chain named. Where “and” joins values, the source holds several entries; their conditions need not be identical. Equal values may be shown once.

B1: FL#41: engineered CYP102A1 variant used as reference P450 for fingerprint normalization, SEQ ID NO 3 (protein)
chain: MTIKEMPQPKTFGELKNLPLLNTDKPVQALMKIADELGEIFKFEAPGRVTRYLSSQRLIKEACDESRFDKNLSQALKFVRDFAGDGLATSWTHEKNWKKAHNILLPSFSQQAMKGYHAMMVDIAVQLVQKWERLNADEHIEVPEDMTRLTLDTIGLCGFNYRFNSFYRDQPHPFITSMVRALDEAMNKLQRANPDDPAYDENKRQFQEDIKVMNDLVDKIIADRKASGEQSDDLLTHMLNGKDPETGEPLDDENIRYQIITFLIAGHETTSGLLSFALYFLVKNPHVLQKAAEEAARVLVDPVPSYKQVKQLKYVGMVLNEALRLWPTAPAFSLYAKEDTVLGGEYPLEKGDELMVLIPQLHRDKTIWGDDVEEFRPERFENPSAIPQHAFKPFGNGQRACIGQQFALHEATLVLGMMLKHFDFEDHTNYELDIKETLTLKPEGFVVKAKSKKIPLGGIPSPSTEQSAKKVRKKAENAHNTPLLVLYGSNMGTAEGTARDLADIAMSKGFAPQVATLDSHAGNLPREGAVLIVTASYNGHPPDNAKQFVDWLDQASADEVKGVRYSVFGCGDKNWATTYQKVPAFIDETLAAKGAENIADRGEADASDDFEGTYEEWREHMWSDVAAYFNLDIENSEDNKSTLSLQFVDSAADMPLAKMHGAFSTNVVASKELQQPGSARSTRHLEIELPKEASYQEGDHLGVIPRNYEGIVNRVTARFGLDASQQIRLEAEEEKLAHLPLAKTVSVEELLQYVELQDPVTRTQLRAMAAKTVCPPHKVELEALLEKQAYKEQVLAKRLTMLELLEKYPACEMKFSEFIALLPSIRPRYYSISSSPRVDEKQASITVSVVSGEAWSGYGEYKGIASNYLAELQEGDTITCFISTPQSEFTLPKDPETPLIMVGPGTGVAPFRGFVQARKQLKEQGQSLGEAHLYFGCRSPHEDYLYQEELENAQSEGIITLHTAFSRMPNQPKTYVQHVMEQDGKKLIELLDQGAHFYICGDGSQMAPAVEATLMKSYADVHQVSEADARLWLQQLEEKGRYAKDVWAG
B2: Wild-type CYP102A1: fatty acid hydroxylase CYP102A1 from Bacillus megaterium, SEQ ID NO 1 (protein, listed as Bacillus megaterium)
chain: B1 chain with A88F
B3: FL#62: engineered variant of P450 monooxygenase CYP102A1, SEQ ID NO 15, parent of the libraries (protein)
chain: MTIKEMPQPKTFGELKNLPLLNTDKPVQALMKIADELGEIFKFEAPGRVTRYLSSQRLIKEACDESRFDKNLSQALKFARDSVGDGLATSWTHEKNWKKAHNILLPSFSQQAMKGYHAMMVDIAVQLVQKWERLNADEHIEVSEDMTRLTLDTIGLCGFNYRFNSFYRDQPHPFIISMVRTLDEVMNKLQRANPDDPVYDENKRQCQEDIKVMNDLVDKIIADRKARGEQSDDLLTQMLNGKDPETGEPLDDGNISYQIITFLIAGHETTSGLLSFALYFLVKNPHVLQKVAEEAARVLVDPVPSYKQVKQLKYVGMVLNEALRLWPTAPAFSLYAKEDTVLGGEYPLEKGDEVMVLIPQLHRDKTIWGDDVEEFRPERFENPSAIPQHAFKPFGNGQRACIGQQFALHEATLVLGMMLKHFDFEDHTNYELDIKETLTLKPEGFVVKAKSKKIPLGGIPSPSTEQSAKKVRKKAENAHNTPLLVLYGSNMGTAEGTARDLADIAMSKGFAPQVATLDSHAGNLPREGAVLIVTASYNGHPPDNAKQFVDWLDQASADEVKGVRYSVFGCGDKNWATTYQKVPAFIDETLAAKGAENIADRGEADASDDFEGTYEEWREHMWSDVAAYFNLDIENSEDNKSTLSLQFVDSAADMPLAKMHGAFSTNVVASKELQQPGSARSTRHLEIELPKEASYQEGDHLGVIPRNYEGIVNRVTARFGLDASQQIRLEAEEEKLAHLPLAKTVSVEELLQYVELQDPVTRTQLRAMAAKTVCPPHKVELEALLEKQAYKEQVLAKRLTMLELLEKYPACEMKFSEFIALLPSIRPRYYSISSSPRVDEKQASITVSVVSGEAWSGYGEYKGIASNYLAELQEGDTITCFISTPQSEFTLPKDPETPLIMVGPGTGVAPFRGFVQARKQLKEQGQSLGEAHLYFGCRSPHEDYLYQEELENAQSEGIITLHTAFSRMPNQPKTYVQHVMEQDGKKLIELLDQGAHFYICGDGSQMAPAVEATLMKSYADVHQVSEADARLWLQQLEEKGRYAKDVWAG

Key:
Type in all cases: biochemical
[1] = Fingerprinting: demethylation activity on methoxy probes 1-5, Purpald colorimetric assay; conditions: formaldehyde formation, FIG. 5A
Experimental: To test the viability of compounds I-5 as probes, the fatty acid hydroxylase CYP102A1 (SEQ ID NO 1) from Bacillus megaterium and […] engineered variants thereof (SEQ ID NO 3, SEQ ID NO 4, SEQ ID NO 5, SEQ ID NO 6, SEQ ID NO 8, SEQ ID NO 11, SEQ ID NO 12, SEQ ID NO 14, SEQ ID NO 15) were fingerprinted. […] Parallel reactions with 1-5 were carried out using these P450s in purified form and a NADPH cofactor regeneration system containing a […] (PTDH).
We investigated the utility of these probes for high-throughput profiling of a large library of engineered monooxygenase variants. […] The P450 libraries were expressed in 96-well plates (DH5a cells) and screened against probes 1-5 in parallel to acquire a fingerprint for each functional P450 variant occurring in these libraries. Reactions with the probes (1 mM, 60 min) were carried out using cell lysate in the presence of the phosphite/PTDH cofactor regeneration system, and probe activity was quantified based on absorbance at 550 nm after 60-min incubation with Purpald (30 mM). […] This example illustrates how probes of general formula II such as compound 1-5 could be used for fingerprinting a large library of monooxygenases in a high throughput manner.
Expression and Fingerprinting of P450 Libraries in 96-Well Plates. 96-deep well plates containing 400 μL LB medium (100 mg ampicillin L-1) per well were inoculated with single colonies from the P450 libraries. The total number of screened P450 variants was about 10,000. In each plate, 8 wells were inoculated with the parent enzyme FL#62. […] P450 demethylation activity on probe 1-5 was measured in parallel reactions with the aid of a Beckman Coulter Multimek 96 automated pipettor and a TECAN Infinity plate reader. […] After incubation for 1 hour at room temperature, plates were added with 50 μL 2 M NaOH containing 150 mM Purpald and the absorbance at 550 nm measured using the plate reader. The measured demethylation activity of each P450 variant on the five probes was then normalized to the activity of the parent enzyme FL#62 (SEQ ID NO 15) from the same plate. […]

[2] = Monooxygenase activity on artemisinin (ART), total turnovers by HPLC after benzoyl chloride derivatization; conditions: 0.5 mM ART, 1 μM P450 variant; mol hydroxylation products/mol enzyme
Description: Additional 5,000 FL#62-derived variants were produced by simultaneous active-site mutagenesis and subjected to high throughout fingerprinting as described in Example 2. From the acquired fingerprint data, 259 functionally diverse variants (i.e., with a unique fingerprint) were isolated according to the procedure described in Example 2 and combined with the previously isolated 261 variants (Example 2), to yield a collection of 520 functionally diverse, fingerprinted monooxygenases. […] The ART oxygenation activity of the training set P450s was characterized by LC-MS analysis of reactions with ART and each of these variants and quantified in terms of total turnovers (TTN). […] The fingerprints of the training set P450s (both ART-reactive and ART-unreactive) were then correlated with the measured ART activities (TTN values) by multiple linear regression (MLR) analysis, where ART activity is the dependent variable, Y, and the five components of their fingerprints (corresponding to the normalized activities on probes 1-5) are five independent variables (x1, x2, x3, x4, x5) potentially correlated with Y. This process yielded best-fit regression coefficients for the training set and a candidate fingerprint-based model (Y=0.44x1+0.52x2+0.44x3+0.72x4+0.47x5) predictive of ART-reactivity. […]

[3] = Regio- and stereoselectivity (site-selectivity) of ART hydroxylation, product distribution by HPLC
Description: Additional 5,000 FL#62-derived variants were produced by simultaneous active-site mutagenesis and subjected to high throughout fingerprinting as described in Example 2. From the acquired fingerprint data, 259 functionally diverse variants (i.e., with a unique fingerprint) were isolated according to the procedure described in Example 2 and combined with the previously isolated 261 variants (Example 2), to yield a collection of 520 functionally diverse, fingerprinted monooxygenases. From this pool, twenty monooxygenases were randomly isolated to serve as the training set for generating a fingerprint model predictive of ART-reactivity and ranking the members of the monooxygenase library according to this reactivity property, as schematically illustrated in FIG. 13. The ART oxygenation activity of the training set P450s was characterized by LC-MS analysis of reactions with ART and each of these variants and quantified in terms of total turnovers (TTN). […] The fingerprints of the training set P450s (both ART-reactive and ART-unreactive) were then correlated with the measured ART activities (TTN values) by multiple linear regression (MLR) analysis, where ART activity is the dependent variable, Y, and the five components of their fingerprints (corresponding to the normalized activities on probes 1-5) are five independent variables (x1, x2, x3, x4, x5) potentially correlated with Y. This process yielded best-fit regression coefficients for the training set and a candidate fingerprint-based model (Y=0.44x1+0.52x2+0.44x3+0.72x4+0.47x5) predictive of ART-reactivity. Using this model, the remaining P450s in the 520-member collection of fingerprinted P450s were ranked (from highest to lowest predicted ART-reactivity). The 50 top-ranking variants as well as the 20 bottom-ranking variants were then tested experimentally in order to validate the predictions.
Measurement of Monooxygenase Activity on Artemisinin (ART). These isolated ART hydroxylation products were used as standards to generate calibration curves for quantifying ART-hydroxylation activity of FL#62 and the other monooxygenases. This activity was measured as total turnovers via quantification of the hydroxylation products from enzymatic reactions via derivatization with benzoyl chloride followed by HPLC analysis. Briefly, after the enzymatic reaction (0.5 mM ART, 1 μM P450 variant (purified or in cell lysate); 2 μM […], 100 μM NADP^+, 50 mM phosphoric acid), the mixture was added with 9-fluorenone as internal standard (0.5 mM) and extracted with dicholoromethane (0.2 mL). After removing the solvent, the residue was added with 0.1 mL dichloromethane, benzoyl chloride (5 equiv.), and DMAP (10 equiv.) for 3 hours at room temperature. The derivatized products (benzoyl esters) were analyzed using an Agilent 1200 UPLC. Analytical condition: Agilent XDB-C18 column (1.8 um, 4.4×50 mm); UV wavelength: 230 nm; Solvent A: 1% trifluoroacetic acid in deionized H2O; Solvent B: 1% formic acid in acetonitrile. gradient condition: 0-1 min: 20% B; 1-8 mins: 20% B to 90% B; 8-10 mins: 90% B; […]: 90% B to 20% B; 10.3-11.3 min: 20% B. Flow rate: 0.8 mL/min. The area under the curve (AUC) corresponding to the ART hydroxylated products were normalized to the internal standard AUC and used to quantify these products using the calibration curves. Total turnover numbers were calculated from number of mol hydroxylation products/mol enzyme. […]

| Molecule | probe activity on probes 1-5 (in words) [1] | total turnovers (TTN) for ART hydroxylation [2] | selectivity for the desired site ((S)-C7 ART hydroxylation, regio- and stereoselectivity) [3] [%] | C6a-hydroxy-ART, share in product ratio C7(S):C7(R):C6a ([3]; ART hydroxylation products) | C7(R)-hydroxy-ART, share in product ratio C7(S):C7(R):C6a ([3]; ART hydroxylation products) | C7(S)-hydroxy-ART, share in product ratio C7(S):C7(R):C6a ([3]; ART hydroxylation products) | site-selectivity value for (S)-C7 ART hydroxylation ([3]; fraction used for the fingerprint-site reactivity correlation) |
| --- | --- | --- | --- | --- | --- | --- | --- |
| B1 | minimal yet detectable activity on all five probes |  |  |  |  |  |  |
| B2 | no activity on three out of the five probes |  |  |  |  |  |  |
| B3 | high activity on all the probes | 340 TTN and 339 TTN | 83 | 7 | 10 | 83 | 0.83 |
